In PMC13397619 one finds enrichment data, which are given here for 57 variants.

The chains are these.
B1: NLV3 TCR beta chain (CDR3β only) (parent)
chain: ASSPTGGSPSPLH

In the experiment the parent is B1. Description: T-Switch: Jurkat TCRβ−/− cells expressing a CDR3 saturation-mutagenesis library, stained with two peptide-HLA-A*02:01 tetramers (original and novel peptide) plus anti-CD3, FACS-sorted into four gates, gDNA sequenced. The settings on record: tetramers 1 µg/mL, 30 min on ice, SP, DP and SW gates expanded about 10 days between rounds ('two to three rounds of selection' in the Methods), unresolved parent, parent is a CDR3 fragment, scale: fold enrichment, numbering: sequential-on-construct, sequence starts at 1.

Setting [1] is: with both tetramers (double-negative gate, binds neither): HLA-A*02:01 with … and with …, gate DN: OPPOSITE: higher = more of the variant in the gate that binds neither peptide = LESS binding (or no expression; inferred). Fold enrichment of the CDR3 variant in one FACS gate of a two-tetram.
Setting [2] is: with both tetramers (double-positive gate): HLA-A*02:01 with … and with …, gate DP: higher = more of the variant in the gate that binds both peptides. Fold enrichment of the CDR3 variant in one FACS gate of a two-tetramer stain. SP/DP/SW gates were expanded and re-sorted bef.

On to […] (CDR3 as printed); T5H derived by comparing it with the table's wild-type CDR3 ASSPTGGSPSPLH, for which the enrichment is 0.879 under setting [1] and 0 under setting [2].

Turning to […] (CDR3 as printed); S10M derived by comparing it with the table's wild-type CDR3 ASSPTGGSPSPLH, the enrichment turned out to be 0.53 under setting [1] and 0 under setting [2].

For […] (CDR3 as printed); S2G derived by comparing it with the table's wild-type CDR3 ASSPTGGSPSPLH, the enrichment under setting [1] is 0.981 and the enrichment under setting [2] was found to be 0.

With […] (CDR3 as printed); S8A derived by comparing it with the table's wild-type CDR3 ASSPTGGSPSPLH, the enrichment reads like this: under setting [1], 0.6; under setting [2], 0.

Regarding […] (CDR3 as printed); S3F derived by comparing it with the table's wild-type CDR3 ASSPTGGSPSPLH, the enrichment by setting is: under setting [1], 0.989; under setting [2], 0.

For the variant […] (CDR3 as printed); G7F derived by comparing it with the table's wild-type CDR3 ASSPTGGSPSPLH, the enrichment under setting [1] worked out at 1.02 and the enrichment under setting [2] stood at 0.

Consider […] (CDR3 as printed); S8W derived by comparing it with the table's wild-type CDR3 ASSPTGGSPSPLH, for which the enrichment under setting [1] amounted to 0.85 and the enrichment under setting [2] worked out at 0.

[…] (CDR3 as printed); A1I derived by comparing it with the table's wild-type CDR3 ASSPTGGSPSPLH: the enrichment is, setting by setting: under setting [1], 1.15; under setting [2], 0.

As to […] (CDR3 as printed); L12M derived by comparing it with the table's wild-type CDR3 ASSPTGGSPSPLH, the enrichment by setting is: under setting [1], 0.583; under setting [2], 0.

Regarding […] (CDR3 as printed); S2V derived by comparing it with the table's wild-type CDR3 ASSPTGGSPSPLH, the enrichment came to 0.992 under setting [1] and 0 under setting [2].

On to […] (CDR3 as printed); G7V derived by comparing it with the table's wild-type CDR3 ASSPTGGSPSPLH, for which the enrichment reads like this: under setting [1], 1.02; under setting [2], 0.

As to […] (CDR3 as printed); G6M derived by comparing it with the table's wild-type CDR3 ASSPTGGSPSPLH, the enrichment runs as follows: under setting [1], 0.906; under setting [2], 0.

On to […] (CDR3 as printed); G7I derived by comparing it with the table's wild-type CDR3 ASSPTGGSPSPLH, for which the enrichment turned out to be 1.05 under setting [1] and 0 under setting [2].

Regarding […] (CDR3 as printed); A1E derived by comparing it with the table's wild-type CDR3 ASSPTGGSPSPLH, the enrichment stood at 1.07 under setting [1] and 0 under setting [2].

As to […] (CDR3 as printed); L12G derived by comparing it with the table's wild-type CDR3 ASSPTGGSPSPLH, the enrichment was found to be 0.618 under setting [1] and 0 under setting [2].

[…] (CDR3 as printed); A1P derived by comparing it with the table's wild-type CDR3 ASSPTGGSPSPLH: the enrichment by setting is: under setting [1], 1.02; under setting [2], 0.

On to […] (CDR3 as printed); P4H derived by comparing it with the table's wild-type CDR3 ASSPTGGSPSPLH, for which the enrichment turned out to be 0.553 under setting [1] and 0 under setting [2].

Take […] (CDR3 as printed); P4F derived by comparing it with the table's wild-type CDR3 ASSPTGGSPSPLH: the enrichment amounted to 1.02 under setting [1] and 0 under setting [2].

For […] (CDR3 as printed); S8H derived by comparing it with the table's wild-type CDR3 ASSPTGGSPSPLH, the enrichment was found to be 0.901 under setting [1] and 0 under setting [2].

Consider […] (CDR3 as printed); G7M derived by comparing it with the table's wild-type CDR3 ASSPTGGSPSPLH, for which the enrichment under setting [1] came out at 0.978 and the enrichment under setting [2] was found to be 0.

For the variant […] (CDR3 as printed); G6E derived by comparing it with the table's wild-type CDR3 ASSPTGGSPSPLH, the enrichment under setting [1] was found to be 1.12 and the enrichment under setting [2] worked out at 0.

On to […] (CDR3 as printed); S2F derived by comparing it with the table's wild-type CDR3 ASSPTGGSPSPLH, for which the enrichment came to 0.437 under setting [1] and 0 under setting [2].

[…] (CDR3 as printed); T5K derived by comparing it with the table's wild-type CDR3 ASSPTGGSPSPLH: the enrichment by setting is: under setting [1], 0.965; under setting [2], 0.

For the variant […] (CDR3 as printed); P9T derived by comparing it with the table's wild-type CDR3 ASSPTGGSPSPLH, the enrichment runs as follows: under setting [1], 1.11; under setting [2], 0.

In the case of […] (CDR3 as printed); H13F derived by comparing it with the table's wild-type CDR3 ASSPTGGSPSPLH, the enrichment under setting [1] was found to be 0.541 and the enrichment under setting [2] came out at 0.

Regarding […] (CDR3 as printed); S2N derived by comparing it with the table's wild-type CDR3 ASSPTGGSPSPLH, the enrichment was determined as 0.879 under setting [1] and 0 under setting [2].

Consider […] (CDR3 as printed); S2P derived by comparing it with the table's wild-type CDR3 ASSPTGGSPSPLH, for which the enrichment is, setting by setting: under setting [1], 0.795; under setting [2], 0.

As for […] (CDR3 as printed); G6N derived by comparing it with the table's wild-type CDR3 ASSPTGGSPSPLH, the enrichment reads like this: under setting [1], 1.47; under setting [2], 0.

For […] (CDR3 as printed); P11C derived by comparing it with the table's wild-type CDR3 ASSPTGGSPSPLH, the enrichment reads like this: under setting [1], 0.758; under setting [2], 0.

Turning to […] (CDR3 as printed); L12F derived by comparing it with the table's wild-type CDR3 ASSPTGGSPSPLH, the enrichment under setting [1] was 1.49 and the enrichment under setting [2] was 0.

Turning to […] (CDR3 as printed); P9M derived by comparing it with the table's wild-type CDR3 ASSPTGGSPSPLH, the enrichment was found to be 1.18 under setting [1] and 0 under setting [2].

Consider […] (CDR3 as printed); P4E derived by comparing it with the table's wild-type CDR3 ASSPTGGSPSPLH, for which the enrichment under setting [1] is 0.97 and the enrichment under setting [2] worked out at 0.

In the case of […] (CDR3 as printed); G7K derived by comparing it with the table's wild-type CDR3 ASSPTGGSPSPLH, the enrichment under setting [1] came out at 1.36 and the enrichment under setting [2] was determined as 0.

[…] (CDR3 as printed); P9K derived by comparing it with the table's wild-type CDR3 ASSPTGGSPSPLH: the enrichment is, setting by setting: under setting [1], 0.805; under setting [2], 0.

For […] (CDR3 as printed); H13I derived by comparing it with the table's wild-type CDR3 ASSPTGGSPSPLH, the enrichment was found to be 0.602 under setting [1] and 0 under setting [2].

Turning to […] (CDR3 as printed); S10F derived by comparing it with the table's wild-type CDR3 ASSPTGGSPSPLH, the enrichment turned out to be 1.25 under setting [1] and 0 under setting [2].

Turning to […] (CDR3 as printed); S3L derived by comparing it with the table's wild-type CDR3 ASSPTGGSPSPLH, the enrichment reads like this: under setting [1], 0.942; under setting [2], 0.

For […] (CDR3 as printed); H13C derived by comparing it with the table's wild-type CDR3 ASSPTGGSPSPLH, the enrichment was determined as 0.646 under setting [1] and 0 under setting [2].

As to […] (CDR3 as printed); H13L derived by comparing it with the table's wild-type CDR3 ASSPTGGSPSPLH, the enrichment was determined as 0.846 under setting [1] and 0 under setting [2].

For the variant […] (CDR3 as printed); S10L derived by comparing it with the table's wild-type CDR3 ASSPTGGSPSPLH, the enrichment is 0.468 under setting [1] and 0 under setting [2].

In the case of […] (CDR3 as printed); S8Y derived by comparing it with the table's wild-type CDR3 ASSPTGGSPSPLH, the enrichment is, setting by setting: under setting [1], 0.351; under setting [2], 0.

In the case of […] (CDR3 as printed); S3K derived by comparing it with the table's wild-type CDR3 ASSPTGGSPSPLH, the enrichment runs as follows: under setting [1], 1.11; under setting [2], 0.

Take […] (CDR3 as printed); P4M derived by comparing it with the table's wild-type CDR3 ASSPTGGSPSPLH: the enrichment is 0.718 under setting [1] and 0 under setting [2].

Take […] (CDR3 as printed); S10C derived by comparing it with the table's wild-type CDR3 ASSPTGGSPSPLH: the enrichment worked out at 0.577 under setting [1] and 0 under setting [2].

With […] (CDR3 as printed); S10R derived by comparing it with the table's wild-type CDR3 ASSPTGGSPSPLH, the enrichment runs as follows: under setting [1], 1.17; under setting [2], 0.

With […] (CDR3 as printed); P11D derived by comparing it with the table's wild-type CDR3 ASSPTGGSPSPLH, the enrichment by setting is: under setting [1], 0.46; under setting [2], 0.

[…] (CDR3 as printed); S10E derived by comparing it with the table's wild-type CDR3 ASSPTGGSPSPLH: the enrichment is, setting by setting: under setting [1], 1.41; under setting [2], 0.

As to […] (CDR3 as printed); S8Q derived by comparing it with the table's wild-type CDR3 ASSPTGGSPSPLH, the enrichment was found to be 0.893 under setting [1] and 0 under setting [2].

Turning to […] (CDR3 as printed); P4R derived by comparing it with the table's wild-type CDR3 ASSPTGGSPSPLH, the enrichment reads like this: under setting [1], 0.618; under setting [2], 0.

On to […] (CDR3 as printed); S8C derived by comparing it with the table's wild-type CDR3 ASSPTGGSPSPLH, for which the enrichment under setting [1] amounted to 0.677 and the enrichment under setting [2] turned out to be 0.

As to […] (CDR3 as printed); H13Q derived by comparing it with the table's wild-type CDR3 ASSPTGGSPSPLH, the enrichment was 0.592 under setting [1] and 0 under setting [2].

Take […] (CDR3 as printed); P11M derived by comparing it with the table's wild-type CDR3 ASSPTGGSPSPLH: the enrichment under setting [1] was determined as 0.318 and the enrichment under setting [2] stood at 0.

For the variant […] (CDR3 as printed); A1C derived by comparing it with the table's wild-type CDR3 ASSPTGGSPSPLH, the enrichment runs as follows: under setting [1], 1.24; under setting [2], 0.

As for […] (CDR3 as printed); L12S derived by comparing it with the table's wild-type CDR3 ASSPTGGSPSPLH, the enrichment reads like this: under setting [1], 0.878; under setting [2], 0.

In the case of […] (CDR3 as printed); G7H derived by comparing it with the table's wild-type CDR3 ASSPTGGSPSPLH, the enrichment under setting [1] worked out at 0.687 and the enrichment under setting [2] amounted to 0.

As for […] (CDR3 as printed); S8M derived by comparing it with the table's wild-type CDR3 ASSPTGGSPSPLH, the enrichment is, setting by setting: under setting [1], 1.29; under setting [2], 0.

For […] (CDR3 as printed); P11Q derived by comparing it with the table's wild-type CDR3 ASSPTGGSPSPLH, the enrichment amounted to 0.777 under setting [1] and 0 under setting [2].
